T1: Human CD3eg linker (human)
T1 construct: single-chain construct; also called recombinant human CD3
T1 chain: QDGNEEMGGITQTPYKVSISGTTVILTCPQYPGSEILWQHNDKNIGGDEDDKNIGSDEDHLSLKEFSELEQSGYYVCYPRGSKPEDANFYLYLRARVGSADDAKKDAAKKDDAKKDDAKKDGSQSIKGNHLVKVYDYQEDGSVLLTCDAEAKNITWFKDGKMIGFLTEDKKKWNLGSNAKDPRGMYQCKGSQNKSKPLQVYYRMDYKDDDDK


Biological target: T1, Human CD3eg linker
Test: SPR, vs unmutated H183/L072

| fold change of affinity [fold] | Binder |
| --- | --- |
| 1.5 | dBBDu183H S62Y/dBBDu072L (antibody, name in Kabat numbering, V domains shown) VH: QVQLVESGGGLVQPGRSLRLSCAASGFTFSNAWMHWVRQAPGKGLEWVAQIKDKGNAYAAYYAPYVKGRFTISRDDSKNSIYLQMNSLKTEDTAVYYCHYVHYASASTVLPAFGVDAWGQGTTVTVSS VL: DIVMTQSPLSLPVTPGEPASISCQASQELVHMNRNTYLHWYQQKPGQAPRLLIYKVSNRFPGVPDRFSGSGSGTDFTLKISRVEAEDVGVYYCAQGTSVPFTFGQGTKLEIK |
| 2 | dBBDu183H S62W/dBBDu072L (antibody, name in Kabat numbering, V domains shown) VH: QVQLVESGGGLVQPGRSLRLSCAASGFTFSNAWMHWVRQAPGKGLEWVAQIKDKGNAYAAYYAPWVKGRFTISRDDSKNSIYLQMNSLKTEDTAVYYCHYVHYASASTVLPAFGVDAWGQGTTVTVSS VL: DIVMTQSPLSLPVTPGEPASISCQASQELVHMNRNTYLHWYQQKPGQAPRLLIYKVSNRFPGVPDRFSGSGSGTDFTLKISRVEAEDVGVYYCAQGTSVPFTFGQGTKLEIK |
| 1.4 | dBBDu183H S62V/dBBDu072L (antibody, name in Kabat numbering, V domains shown) VH: QVQLVESGGGLVQPGRSLRLSCAASGFTFSNAWMHWVRQAPGKGLEWVAQIKDKGNAYAAYYAPVVKGRFTISRDDSKNSIYLQMNSLKTEDTAVYYCHYVHYASASTVLPAFGVDAWGQGTTVTVSS VL: DIVMTQSPLSLPVTPGEPASISCQASQELVHMNRNTYLHWYQQKPGQAPRLLIYKVSNRFPGVPDRFSGSGSGTDFTLKISRVEAEDVGVYYCAQGTSVPFTFGQGTKLEIK |
| 1.5 | dBBDu183H S62R/dBBDu072L (antibody, name in Kabat numbering, V domains shown) VH: QVQLVESGGGLVQPGRSLRLSCAASGFTFSNAWMHWVRQAPGKGLEWVAQIKDKGNAYAAYYAPRVKGRFTISRDDSKNSIYLQMNSLKTEDTAVYYCHYVHYASASTVLPAFGVDAWGQGTTVTVSS VL: DIVMTQSPLSLPVTPGEPASISCQASQELVHMNRNTYLHWYQQKPGQAPRLLIYKVSNRFPGVPDRFSGSGSGTDFTLKISRVEAEDVGVYYCAQGTSVPFTFGQGTKLEIK |
| 1.3 | dBBDu183H S62T/dBBDu072L (antibody, name in Kabat numbering, V domains shown) VH: QVQLVESGGGLVQPGRSLRLSCAASGFTFSNAWMHWVRQAPGKGLEWVAQIKDKGNAYAAYYAPTVKGRFTISRDDSKNSIYLQMNSLKTEDTAVYYCHYVHYASASTVLPAFGVDAWGQGTTVTVSS VL: DIVMTQSPLSLPVTPGEPASISCQASQELVHMNRNTYLHWYQQKPGQAPRLLIYKVSNRFPGVPDRFSGSGSGTDFTLKISRVEAEDVGVYYCAQGTSVPFTFGQGTKLEIK |
| 1.3 | dBBDu183H S62Q/dBBDu072L (antibody, name in Kabat numbering, V domains shown) VH: QVQLVESGGGLVQPGRSLRLSCAASGFTFSNAWMHWVRQAPGKGLEWVAQIKDKGNAYAAYYAPQVKGRFTISRDDSKNSIYLQMNSLKTEDTAVYYCHYVHYASASTVLPAFGVDAWGQGTTVTVSS VL: DIVMTQSPLSLPVTPGEPASISCQASQELVHMNRNTYLHWYQQKPGQAPRLLIYKVSNRFPGVPDRFSGSGSGTDFTLKISRVEAEDVGVYYCAQGTSVPFTFGQGTKLEIK |

The next lines start with the binder.

| Binder | fold change of affinity [fold] |
| --- | --- |
| dBBDu183H P100eQ/dBBDu072L (antibody, name in Kabat numbering, V domains shown) VH: QVQLVESGGGLVQPGRSLRLSCAASGFTFSNAWMHWVRQAPGKGLEWVAQIKDKGNAYAAYYAPSVKGRFTISRDDSKNSIYLQMNSLKTEDTAVYYCHYVHYASASTVLQAFGVDAWGQGTTVTVSS VL: DIVMTQSPLSLPVTPGEPASISCQASQELVHMNRNTYLHWYQQKPGQAPRLLIYKVSNRFPGVPDRFSGSGSGTDFTLKISRVEAEDVGVYYCAQGTSVPFTFGQGTKLEIK | 1.5 |
| dBBDu183H S62N/dBBDu072L (antibody, name in Kabat numbering, V domains shown) VH: QVQLVESGGGLVQPGRSLRLSCAASGFTFSNAWMHWVRQAPGKGLEWVAQIKDKGNAYAAYYAPNVKGRFTISRDDSKNSIYLQMNSLKTEDTAVYYCHYVHYASASTVLPAFGVDAWGQGTTVTVSS VL: DIVMTQSPLSLPVTPGEPASISCQASQELVHMNRNTYLHWYQQKPGQAPRLLIYKVSNRFPGVPDRFSGSGSGTDFTLKISRVEAEDVGVYYCAQGTSVPFTFGQGTKLEIK | 1.4 |
| dBBDu183H S62D/dBBDu072L (antibody, name in Kabat numbering, V domains shown) VH: QVQLVESGGGLVQPGRSLRLSCAASGFTFSNAWMHWVRQAPGKGLEWVAQIKDKGNAYAAYYAPDVKGRFTISRDDSKNSIYLQMNSLKTEDTAVYYCHYVHYASASTVLPAFGVDAWGQGTTVTVSS VL: DIVMTQSPLSLPVTPGEPASISCQASQELVHMNRNTYLHWYQQKPGQAPRLLIYKVSNRFPGVPDRFSGSGSGTDFTLKISRVEAEDVGVYYCAQGTSVPFTFGQGTKLEIK | 1.2 |
| dBBDu183H S62G/dBBDu072L (antibody, name in Kabat numbering, V domains shown) VH: QVQLVESGGGLVQPGRSLRLSCAASGFTFSNAWMHWVRQAPGKGLEWVAQIKDKGNAYAAYYAPGVKGRFTISRDDSKNSIYLQMNSLKTEDTAVYYCHYVHYASASTVLPAFGVDAWGQGTTVTVSS VL: DIVMTQSPLSLPVTPGEPASISCQASQELVHMNRNTYLHWYQQKPGQAPRLLIYKVSNRFPGVPDRFSGSGSGTDFTLKISRVEAEDVGVYYCAQGTSVPFTFGQGTKLEIK | 1.4 |
| dBBDu183H P100eS/dBBDu072L (antibody, name in Kabat numbering, V domains shown) VH: QVQLVESGGGLVQPGRSLRLSCAASGFTFSNAWMHWVRQAPGKGLEWVAQIKDKGNAYAAYYAPSVKGRFTISRDDSKNSIYLQMNSLKTEDTAVYYCHYVHYASASTVLSAFGVDAWGQGTTVTVSS VL: DIVMTQSPLSLPVTPGEPASISCQASQELVHMNRNTYLHWYQQKPGQAPRLLIYKVSNRFPGVPDRFSGSGSGTDFTLKISRVEAEDVGVYYCAQGTSVPFTFGQGTKLEIK | 1.2 |
| dBBDu183H S62H/dBBDu072L (antibody, name in Kabat numbering, V domains shown) VH: QVQLVESGGGLVQPGRSLRLSCAASGFTFSNAWMHWVRQAPGKGLEWVAQIKDKGNAYAAYYAPHVKGRFTISRDDSKNSIYLQMNSLKTEDTAVYYCHYVHYASASTVLPAFGVDAWGQGTTVTVSS VL: DIVMTQSPLSLPVTPGEPASISCQASQELVHMNRNTYLHWYQQKPGQAPRLLIYKVSNRFPGVPDRFSGSGSGTDFTLKISRVEAEDVGVYYCAQGTSVPFTFGQGTKLEIK | 1.3 |
| dBBDu183H P100eY/dBBDu072L (antibody, name in Kabat numbering, V domains shown) VH: QVQLVESGGGLVQPGRSLRLSCAASGFTFSNAWMHWVRQAPGKGLEWVAQIKDKGNAYAAYYAPSVKGRFTISRDDSKNSIYLQMNSLKTEDTAVYYCHYVHYASASTVLYAFGVDAWGQGTTVTVSS VL: DIVMTQSPLSLPVTPGEPASISCQASQELVHMNRNTYLHWYQQKPGQAPRLLIYKVSNRFPGVPDRFSGSGSGTDFTLKISRVEAEDVGVYYCAQGTSVPFTFGQGTKLEIK | 2 |
| dBBDu183H S62F/dBBDu072L (antibody, name in Kabat numbering, V domains shown) VH: QVQLVESGGGLVQPGRSLRLSCAASGFTFSNAWMHWVRQAPGKGLEWVAQIKDKGNAYAAYYAPFVKGRFTISRDDSKNSIYLQMNSLKTEDTAVYYCHYVHYASASTVLPAFGVDAWGQGTTVTVSS VL: DIVMTQSPLSLPVTPGEPASISCQASQELVHMNRNTYLHWYQQKPGQAPRLLIYKVSNRFPGVPDRFSGSGSGTDFTLKISRVEAEDVGVYYCAQGTSVPFTFGQGTKLEIK | 1.9 |
| dBBDu183H S62K/dBBDu072L (antibody, name in Kabat numbering, V domains shown) VH: QVQLVESGGGLVQPGRSLRLSCAASGFTFSNAWMHWVRQAPGKGLEWVAQIKDKGNAYAAYYAPKVKGRFTISRDDSKNSIYLQMNSLKTEDTAVYYCHYVHYASASTVLPAFGVDAWGQGTTVTVSS VL: DIVMTQSPLSLPVTPGEPASISCQASQELVHMNRNTYLHWYQQKPGQAPRLLIYKVSNRFPGVPDRFSGSGSGTDFTLKISRVEAEDVGVYYCAQGTSVPFTFGQGTKLEIK | 1.4 |
| dBBDu183H P100eV/dBBDu072L (antibody, name in Kabat numbering, V domains shown) VH: QVQLVESGGGLVQPGRSLRLSCAASGFTFSNAWMHWVRQAPGKGLEWVAQIKDKGNAYAAYYAPSVKGRFTISRDDSKNSIYLQMNSLKTEDTAVYYCHYVHYASASTVLVAFGVDAWGQGTTVTVSS VL: DIVMTQSPLSLPVTPGEPASISCQASQELVHMNRNTYLHWYQQKPGQAPRLLIYKVSNRFPGVPDRFSGSGSGTDFTLKISRVEAEDVGVYYCAQGTSVPFTFGQGTKLEIK | 1.5 |
| dBBDu183H S62E/dBBDu072L (antibody, name in Kabat numbering, V domains shown) VH: QVQLVESGGGLVQPGRSLRLSCAASGFTFSNAWMHWVRQAPGKGLEWVAQIKDKGNAYAAYYAPEVKGRFTISRDDSKNSIYLQMNSLKTEDTAVYYCHYVHYASASTVLPAFGVDAWGQGTTVTVSS VL: DIVMTQSPLSLPVTPGEPASISCQASQELVHMNRNTYLHWYQQKPGQAPRLLIYKVSNRFPGVPDRFSGSGSGTDFTLKISRVEAEDVGVYYCAQGTSVPFTFGQGTKLEIK | 1.2 |
| dBBDu183H P100eW/dBBDu072L (antibody, name in Kabat numbering, V domains shown) VH: QVQLVESGGGLVQPGRSLRLSCAASGFTFSNAWMHWVRQAPGKGLEWVAQIKDKGNAYAAYYAPSVKGRFTISRDDSKNSIYLQMNSLKTEDTAVYYCHYVHYASASTVLWAFGVDAWGQGTTVTVSS VL: DIVMTQSPLSLPVTPGEPASISCQASQELVHMNRNTYLHWYQQKPGQAPRLLIYKVSNRFPGVPDRFSGSGSGTDFTLKISRVEAEDVGVYYCAQGTSVPFTFGQGTKLEIK | 1.7 |
| dBBDu183H P100eR/dBBDu072L (antibody, name in Kabat numbering, V domains shown) VH: QVQLVESGGGLVQPGRSLRLSCAASGFTFSNAWMHWVRQAPGKGLEWVAQIKDKGNAYAAYYAPSVKGRFTISRDDSKNSIYLQMNSLKTEDTAVYYCHYVHYASASTVLRAFGVDAWGQGTTVTVSS VL: DIVMTQSPLSLPVTPGEPASISCQASQELVHMNRNTYLHWYQQKPGQAPRLLIYKVSNRFPGVPDRFSGSGSGTDFTLKISRVEAEDVGVYYCAQGTSVPFTFGQGTKLEIK | 2.2 |
| dBBDu183H P100eT/dBBDu072L (antibody, name in Kabat numbering, V domains shown) VH: QVQLVESGGGLVQPGRSLRLSCAASGFTFSNAWMHWVRQAPGKGLEWVAQIKDKGNAYAAYYAPSVKGRFTISRDDSKNSIYLQMNSLKTEDTAVYYCHYVHYASASTVLTAFGVDAWGQGTTVTVSS VL: DIVMTQSPLSLPVTPGEPASISCQASQELVHMNRNTYLHWYQQKPGQAPRLLIYKVSNRFPGVPDRFSGSGSGTDFTLKISRVEAEDVGVYYCAQGTSVPFTFGQGTKLEIK | 1.4 |

Source: patent US20210388087A1 (Chugai, published 2021)
